Assay results: article PMC4187101

Target: DNA adenine-N6 methyltransferase M.TaqI (Thermus aquaticus) (UniProt P14385)
Assay: competition, 2-aminopurine fluorescence titration
Details: 20 mM TrisOAc pH 7.9, 10 mM Mg(OAc)2, 50 mM KOAc, 0.01% reduced Triton X-100, with 1 mM DTT (unlocked) or no reducing agent (locked), 400 nM duplex vs 200 nM …

DNA adenine-N6 methyltransferase M.TaqI (Thermus aquaticus), sequence (P14385 whole entry): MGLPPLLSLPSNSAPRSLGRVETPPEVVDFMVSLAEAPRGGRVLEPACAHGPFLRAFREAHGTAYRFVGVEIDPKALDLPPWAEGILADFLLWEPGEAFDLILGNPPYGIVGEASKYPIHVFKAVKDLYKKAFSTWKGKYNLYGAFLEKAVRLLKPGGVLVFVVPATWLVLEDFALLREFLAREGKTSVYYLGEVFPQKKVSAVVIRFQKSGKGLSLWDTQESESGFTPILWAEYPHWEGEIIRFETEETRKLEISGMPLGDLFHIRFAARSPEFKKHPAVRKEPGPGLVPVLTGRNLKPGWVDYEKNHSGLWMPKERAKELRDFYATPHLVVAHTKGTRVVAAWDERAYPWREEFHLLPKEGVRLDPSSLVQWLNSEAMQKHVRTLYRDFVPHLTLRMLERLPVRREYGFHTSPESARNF

| Sequence | Kd (strand 1 position 9 (N) = 6-thio-2'-deoxyinosine (I6S), strand 2 U6 = 4-thio-2'-deoxyuridine (U4S), A9 = N6-methyl-dA, all other residues DNA) | Kd (strand 1 position 9 (N) = 6-thio-2'-deoxyinosine, S-ethylene-S interstrand cross-linked to 4-thio-2'-deoxyuridine at strand 2 U6, strand 2 A9 = N6-methyl-dA) |
| --- | --- | --- |
| GCCGCTCGNTGCCG / CGGCAUCGAGCGGC [1I6S·2U4S (unlocked A/T analog)] | 1 nM |  |
| GCCGCTCGNTGCCG / CGGCAUCGAGCGGC [1I6S-Et-S4U2 (locked, cross-linked A/T analog)] |  | 6 nM |
